{
  "source": "patent EP4707393A1",
  "about": "“DOUBLE-STRANDED SIRNA, CONJUGATE THEREOF AND USE THEREOF” (CMS Research & Development Pte. Ltd., priority 2023, dated 2024)",
  "key": {"[1]": {"tested_on": "human LPA gene (Genbank number: NM_005577.4)", "experiment": "Inhibitory activity against LPA mRNA, psiCHECK-2 dual-luciferase reporter vector in Huh7 cells", "format": "cell-based", "details": "Huh7 cells transfected with LPA_psiCHECK-2 plasmid, RNAiMAX transfection", "procedure": "A stock solution was prepared by dissolving in PBS and stored at -20 °C.\nThe human LPA gene (Genbank number: NM_005577.4) was cloned into the psiCHECK™-2 vector.\nHuh7 cells were cultured in DMEM (Gibco-11995-065, 500 mL) medium, supplemented with FBS (ExCellBio-FSP500, 57 mL), Penicillin-Streptomycin solution (Hyclone-SV30010, 5.7 mL), GlutaMAX™ (Gibco-35050-061, 5.7 mL) and Non-Essential Amino Acids Solution (Gibco-11140050, 5.7 mL).\nOn Day 1, a method for transfection of the LPA_PSICHECK (TM)-2 plasmid is briefly described as follows: Huh7 cells were washed with DPBS, followed by digestion with 0.05% trypsin, gently pipetted into single cells in DMEM containing 10% FBS, and counted. Plasmid DNA was transferred into Huh7 cells using Fugene HD. The transfected cells were seeded into 96-well plates at a density of 10,000 cells per well, with 100 µL culture medium per well. The cells were incubated overnight in a 5% CO2 incubator at 37 °C.\nOn Day 2, the test compounds were diluted serially with PBS to 3 concentrations.\nRNAiMAX transfection reagent was prepared by blending homogeneously with Opti-MEM at a ratio of RNAiMAX: Opti-MEM=3:47 in a 15 mL centrifuge tube as needed. The compounds were mixed with the RNAiMAX/Opti-MEM (1:1) and incubated for 15 min. The compound-containing RNAiMAX/Opti-MEM mixture was diluted 10-fold with fresh medium and blended homogeneously.\nThe medium in each well was aspirated, and then 100 µL of the fresh compound-containing medium was added, and then incubated in a 5% CO2, 37 °C incubator.\nExperimental procedures refer to DUAL-GLO® Dual Luciferase Assay System instructions, briefly described as follows: Taking out the cells from the incubator, aspirating and discarding the supernatant, adding 75µL fresh culture medium and 75µL detection reagent, shaking for 10 minutes in the dark, and after the cells had been fully lysed, transfering100µL sample to an opaque whiteboard for detecting the Firefly luminescence signal; adding 50 µL Dual-Glo®Stop & Glo® test reagent to each well and detecting the Renilla luciferase signal after shaking for 10 minutes in the dark. The ratio of the reporter signal to the internal control reporter signal was calculated for each well.\n[formula] % Inhibition = (1-Sampleratio/RNAiMAXcontrolratio) × 100% [formula]"}, "hPBMCs": {"tested_on": "hPBMCs", "experiment": "Immunogenicity test in hPBMCs (IL-6 and TNF-α ELISA of supernatant)", "format": "cell-based, human", "details": "donor 1 hPBMCs, 18-20 h", "procedure": "1 Experimental material • 1.1 Double-stranded siRNA conjugates • 1.2 hPBMCs, purchased from Shanghai Sailybio Medical Co., LTD. • 1.3 Main reagents: Penicillin-Streptomycin (Cat. No.: 15140122), RNase-free water (Cat. No.: AM9938), IL-6 ELISA kit (Cat. No.: 555220), TNF-α ELISA kit (Cat. No.: 555212), LPS (Cat. No.: L2630), etc. 2 Experimental method • 2.1 Compound Preparation: Compounds were prepared as stock solutions with enzyme-free water. Compound weight = powder weight * purity. The concentration of prepared solutions was 900 µg/mL, followed by three-fold serial dilution with enzyme-free water. Each concentration was diluted 10-fold with 1640 medium, resulting in a final enzyme-free water content of 5.0%. • 2.2 Experimental procedure: • 2.2.1 PBMC cells were resuscitated one day in advance and incubated overnight in 1640 complete medium. • 2.2.2 On the day of the experiment, PBMC cells were centrifuged at 300 × g for 8 minutes, and the cell density was adjusted to 1.6 × 10^6 mL with 1640 complete medium. The cells were then added to a 96-well plate, 125 µL per well, and incubated in a 37 °C, 5% CO2 incubator for 15 minutes. • 2.2.3 The diluted test compounds were added to the 96-well plate according to the plate map, all in duplicate, 125 µL for each well; the positive control group and the blank group were added with an equal volume of 1640 complete culture medium containing the same amount of enzyme-free water. • 2.2.4 After gently shaking, the well plates were incubated in an incubator at 37 °C for 18-20 h. The supernatant was collected by centrifugation, and secretions of TNF-α and IL-6 were detected by ELISA. • 2.2.5 Data were analyzed using GraphPad Prism 8 software. 3 Experimental results Table 10. IL-6 and TNF-α levels in the cell supernatant of donor 1 hPBMCs treated with different doses of test compounds"}},
  "data": [
    {"substance": "Z1: siRNA conjugate: sense SEQ ID NO:27, ligand D08 at 3' end of sense strand, antisense SEQ ID NO:56 (sense CCCTTATTGTTATACG; antisense ATCCCTCGTANAACAATAAGGGGCTGTT; 2'-OMe/2'-F modified, ligand at sense 3' end, full pattern not given here)", "values": [
      {"measurement": "EC50", "setting": "[1]", "value": 0.12, "unit": "nM"}
    ]},
    {"substance": "Z2: siRNA conjugate: sense SEQ ID NO:28, ligand D08 at 3' end of sense strand, antisense SEQ ID NO:56 (sense CCCCTTATTGTTATAC; antisense ATCCCTCGTANAACAATAAGGGGCTGTT; 2'-OMe/2'-F modified, ligand at sense 3' end, full pattern not given here)", "values": [
      {"measurement": "EC50", "setting": "[1]", "value": 0.48, "unit": "nM"}
    ]},
    {"substance": "Z6: siRNA conjugate: sense SEQ ID NO:27, ligand D08 at 3' end of sense strand, antisense SEQ ID NO:57 (sense CCCTTATTGTTATACG; antisense TCGTANAACAATAAGGGGCTGTT; ligand D08 at sense 3' end; listed as RNA; modified_base 1..2: mod_base = OTHER; note = 2'-O-methylcytidine; modified_base 3: mod_base = OTHER; modified_base 4: mod_base = OTHER; note = 2'-O-methyluridine; modified_base 5: mod_base = OTHER; note = 2'-fluorou; modified_base 1: mod_base = OTHER; note = E-type vinylphosphonate-modified 2'-O-methyluridine; modified_base 2: mod_base = OTHER; note = 2'-fluorocytidine; note = 2'-O-methylguanosine; modified_base 4: mo)", "values": [
      {"measurement": "EC50", "setting": "[1]", "value": 0.42, "unit": "nM"}
    ]},
    {"substance": "Z7: siRNA conjugate: sense SEQ ID NO:27, ligand D08 at 3' end of sense strand, antisense SEQ ID NO:58 (sense CCCTTATTGTTATACG; antisense TCGTANAACAATAAGGGGCTGTT; ligand D08 at sense 3' end; listed as RNA; modified_base 1..2: mod_base = OTHER; note = 2'-O-methylcytidine; modified_base 3: mod_base = OTHER; modified_base 4: mod_base = OTHER; note = 2'-O-methyluridine; modified_base 5: mod_base = OTHER; note = 2'-fluorou; modified_base 1: mod_base = OTHER; modified_base 2: mod_base = OTHER; note = 2'-fluorocytidine; note = 2'-O-methylguanosine)", "values": [
      {"measurement": "EC50", "setting": "[1]", "value": 2.41, "unit": "nM"}
    ]},
    {"substance": "Z38: siRNA conjugate: sense SEQ ID NO:49, ligand D01 at 3' end of sense strand, antisense SEQ ID NO:77 (sense CAGCCCCTTATTGTTATACGA; antisense NCGTATNACAATAAGGGGCNGTT; ligand D01 at sense 3' end; listed as RNA; modified_base 1: mod_base = OTHER; note = 2'-O-methylcytidine; modified_base 2: mod_base = OTHER; note = 2'-O-methyladenosine; modified_base 3: mod_base = OTHER; note = 2'-O-methylguanosine; modified_base 4..7: mod_base = OTHER; note = 2'-O-me; note = n is mDVPU; note = 2'-deoxycytidine; modified_base 4: mod_base = OTHER; note = 2'-O-methyluridine;)", "values": [
      {"measurement": "IL-6", "setting": "hPBMCs; 5 µg/mL", "value": 1281.4, "unit": "pg/mL"},
      {"measurement": "TNF alpha", "setting": "hPBMCs; 5 µg/mL", "value": 33.5, "unit": "pg/mL"},
      {"measurement": "IL-6", "setting": "hPBMCs; 15 µg/mL", "value": 1257.1, "unit": "pg/mL"},
      {"measurement": "TNF alpha", "setting": "hPBMCs; 15 µg/mL", "value": 34.8, "unit": "pg/mL"},
      {"measurement": "IL-6", "setting": "hPBMCs; 45 µg/mL", "value": 1268.3, "unit": "pg/mL"},
      {"measurement": "TNF alpha", "setting": "hPBMCs; 45 µg/mL", "value": 34.4, "unit": "pg/mL"}
    ]},
    {"substance": "Z39: siRNA conjugate: sense SEQ ID NO:49, ligand D21 at 3' end of sense strand, antisense SEQ ID NO:77 (sense CAGCCCCTTATTGTTATACGA; antisense NCGTATNACAATAAGGGGCNGTT; ligand D21 at sense 3' end; listed as RNA; modified_base 1: mod_base = OTHER; note = 2'-O-methylcytidine; modified_base 2: mod_base = OTHER; note = 2'-O-methyladenosine; modified_base 3: mod_base = OTHER; note = 2'-O-methylguanosine; modified_base 4..7: mod_base = OTHER; note = 2'-O-me; note = n is mDVPU; note = 2'-deoxycytidine; modified_base 4: mod_base = OTHER; note = 2'-O-methyluridine;)", "values": [
      {"measurement": "IL-6", "setting": "hPBMCs; 5 µg/mL", "value": 1333.6, "unit": "pg/mL"},
      {"measurement": "TNF alpha", "setting": "hPBMCs; 5 µg/mL", "value": 31.4, "unit": "pg/mL"},
      {"measurement": "IL-6", "setting": "hPBMCs; 15 µg/mL", "value": 1304.8, "unit": "pg/mL"},
      {"measurement": "TNF alpha", "setting": "hPBMCs; 15 µg/mL", "value": 32.6, "unit": "pg/mL"},
      {"measurement": "IL-6", "setting": "hPBMCs; 45 µg/mL", "value": 1297.0, "unit": "pg/mL"},
      {"measurement": "TNF alpha", "setting": "hPBMCs; 45 µg/mL", "value": 33.3, "unit": "pg/mL"}
    ]},
    {"substance": "Z44: siRNA conjugate: sense SEQ ID NO:51, ligand D01 at 3' end of sense strand, antisense SEQ ID NO:82 (sense CCTGCCAAGCTTGGTCATCTA; antisense NAGATGNCCAAGCTTGGCNGGTT; ligand D01 at sense 3' end; listed as RNA; modified_base 1..2: mod_base = OTHER; note = 2'-O-methylcytidine; modified_base 3: mod_base = OTHER; note = 2'-O-methyluridine; modified_base 4: mod_base = OTHER; note = 2'-O-methylguanosine; modified_base 5..6: mod_base = OTHER; note = 2'-O-m; modified_base 1: mod_base = OTHER; note = n is mDVPU; modified_base 2: mod_base = OTHER; note = 2'-deoxyadenosine; note = 2'-O-methyladenosi)", "values": [
      {"measurement": "IL-6", "setting": "hPBMCs; 5 µg/mL", "value": 1326.7, "unit": "pg/mL"},
      {"measurement": "TNF alpha", "setting": "hPBMCs; 5 µg/mL", "value": 34.6, "unit": "pg/mL"},
      {"measurement": "IL-6", "setting": "hPBMCs; 15 µg/mL", "value": 1331.0, "unit": "pg/mL"},
      {"measurement": "TNF alpha", "setting": "hPBMCs; 15 µg/mL", "value": 35.2, "unit": "pg/mL"},
      {"measurement": "IL-6", "setting": "hPBMCs; 45 µg/mL", "value": 1354.7, "unit": "pg/mL"},
      {"measurement": "TNF alpha", "setting": "hPBMCs; 45 µg/mL", "value": 35.8, "unit": "pg/mL"}
    ]},
    {"substance": "Z45: siRNA conjugate: sense SEQ ID NO:50, ligand D01 at 3' end of sense strand, antisense SEQ ID NO:82 (sense CCTGCCAAGCTTGGTCATCTA; antisense NAGATGNCCAAGCTTGGCNGGTT; ligand D01 at sense 3' end; listed as RNA; modified_base 1..2: mod_base = OTHER; note = 2'-O-methylcytidine; modified_base 3: mod_base = OTHER; note = 2'-O-methyluridine; modified_base 4: mod_base = OTHER; note = 2'-O-methylguanosine; modified_base 5..6: mod_base = OTHER; note = 2'-O-m; modified_base 1: mod_base = OTHER; note = n is mDVPU; modified_base 2: mod_base = OTHER; note = 2'-deoxyadenosine; note = 2'-O-methyladenosi)", "values": [
      {"measurement": "IL-6", "setting": "hPBMCs; 5 µg/mL", "value": 1327.5, "unit": "pg/mL"},
      {"measurement": "TNF alpha", "setting": "hPBMCs; 5 µg/mL", "value": 35.3, "unit": "pg/mL"},
      {"measurement": "IL-6", "setting": "hPBMCs; 15 µg/mL", "value": 1321.5, "unit": "pg/mL"},
      {"measurement": "TNF alpha", "setting": "hPBMCs; 15 µg/mL", "value": 35.1, "unit": "pg/mL"},
      {"measurement": "IL-6", "setting": "hPBMCs; 45 µg/mL", "value": 1321.4, "unit": "pg/mL"},
      {"measurement": "TNF alpha", "setting": "hPBMCs; 45 µg/mL", "value": 34.9, "unit": "pg/mL"}
    ]}
  ]
}
